Target: SARS-CoV-2 S 2P trimer (S ectodomain, residues 16-1206) (SARS-CoV-2) (UniProt P0DTC2)
Experiment: SEC-MALS

For “SARS-CoV-2 S 2P trimer (S ectodomain, residues 16-1206) (from UniProt P0DTC2 16-1206) (natural protein)”, the stoichiometry N was 3.
